Experimental data taken from IntAct's records for PubMed 20094029.

B1: BRCT-containing protein 1 (Schizosaccharomyces pombe (strain ATCC 38366 / 972)), Q10337 (parent)
chain: MLAAESSNKELFIKNDGKALSFPYDWKLATHVICDDFSSPNVQEGSKRSLRLAKTNWIRDCVDKNTLLNYSFYSCNPYLLFKGICASSCQIDSYQSSLIDDALETFGGRFSKGLMKSMTHLFTYSGMGAKCKKVLDKPSLSIKLIHPQWLLDCLQFGQLIDQDPYLFPNPSYKKNDSSISKAEPTSLFRNVLHGKRIYFSNDLNLPTNFRHSLQKFSVGIGAKIAESINDCDIFIGLKRDTIEFNLASNKNTTIGTISWLLNLFVLGSWKSPLLNALHYPFPSVGFLKDQMVAVTNYTDAARIYLEKLLLACGATYTKDLKPTNTLLIAASSYGQKYGAAKVWNIPTVHHSWLYSSFKNLSSQAFTDFPVPLDDSYMDFIFPCPLNVEKGSFEDTLKSSLTKGNSEVLLDDLSDPSVSSIKGNKTNEELEKEFKSTSDNFGKHIILTSSFSNQSADKGSSLAAEDDRNDEGSTITGVNRELQDEGRLEIDAKSSKTNTPPSPLLVGTPSKESLKEASSDDELPVLATKLVDNVIKEKSPLSLTPKVVVPSHKETYTDEKKLIDELDRVNPLNSSQLLRSKRKSAATALSMLQNVIMPDVLAFEREKKRRQTHRSVSSGEVSRESSESRNTNAKASKRVYITFTGYDKKPSIDNLKKLDMSITSNPSKCTHLIAPRILRTSKFLCSIPYGPCVVTMDWINSCLKTHEIVDEEPYLLNDPEKELELGCTLESALKRARAQGPSLLEDYVVYLTSKTVAPENVPAVISIVKSNGGVCSTLNVYNKRLARHLEDGNVVLITCNEDSHIWTNFLDNASQNKTIFLQNYDWLIKTVLRQEIDVNDRIADEFARAV

Variants of: B1
Conditions: with h2a1_schpo hta1, P04909

Row | Variant | effect of a mutation on the interaction
1 | T643A | disrupting interaction
